Data: the supplement of paper PMC7125110
± gives the standard error. This sample holds only a part of the variants without activity.

B1: glmS ribozyme (parent)
chain: AUAAAAGCGCCAGAACUACAGAAAUGUAGUUGACGAGGAGGAGGUUUAUCGAAUUUUCGGCGGAUGCCUCCAAA

What was measured:
Details in all cases: with glucosamine-6-phosphate
[1] = variants of: B1; assay: self-cleavage kobs at 40 uM GlcN6P; higher = faster cleavage; RNA array
Summary of the method: (§1)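 In situ transcription by E. coli RNA polymerase produced barcoded ribozyme variants on sequenced MiSeq chips, and a hybridised Cy3 probe tracked them at 37 °C. Glucosamine-6-phosphate was flowed in at 40 μM to 10 mM in HEPES/KCl/Mg(OAc)2 buffer. kcat and KM were taken from weighted Michaelis–Menten fits of kobs values from exponential decay fits.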

[2] = variants of: B1; assay: self-cleavage kobs at 160 uM GlcN6P; higher = faster cleavage; RNA array
Summary of the method: as §1

[3] = variants of: B1; assay: self-cleavage kobs at 640 uM GlcN6P; higher = faster cleavage; RNA array
Summary of the method: as §1

[4] = variants of: B1; assay: self-cleavage kobs at 2500 uM GlcN6P; higher = faster cleavage; RNA array
Summary of the method: as §1

[5] = variants of: B1; assay: self-cleavage kobs at 10000 uM GlcN6P; higher = faster cleavage; RNA array
Summary of the method: as §1

Row | Variant | self-cleavage kobs at 40 uM GlcN6P [1] [s⁻¹] | self-cleavage kobs at 160 uM GlcN6P [2] [s⁻¹] | self-cleavage kobs at 640 uM GlcN6P [3] [s⁻¹] | self-cleavage kobs at 2500 uM GlcN6P [4] [s⁻¹] | self-cleavage kobs at 10000 uM GlcN6P [5] [s⁻¹]
1 | G35U G60U | < 1e-05 | < 1e-05 | < 1e-05 | < 1e-05 | < 1e-05
2 | G35C G59U C61U | < 1e-05 | < 1e-05 | < 1e-05 | < 1e-05 | < 1e-05
3 | G35U U65G | < 1e-05 | < 1e-05 | < 1e-05 | < 1e-05 | < 1e-05
4 | G37A A39U A42G C50U | < 1e-05 |  | < 1e-05 |  | < 1e-05
5 | G35C C58A | < 1e-05 |  | < 1e-05 |  | < 1e-05
6 | A39C G51C C71G | < 1e-05 |  |  |  | < 1e-05
7 | A36U G43U C50U | < 1e-05 |  |  |  | 
8 | G38U G59A C68G | 6.06e-05 ± 2.6e-05 |  |  |  | 4.84e-05 ± 1.9e-05
9 | A36C U47C | < 1e-05 |  | < 1e-05 | < 1e-05 | 
10 | A36C U45G U65C | < 1e-05 |  |  | < 1e-05 | 
11 | G37A A53G G60U C61U G63A | < 1e-05 |  |  |  | 
12 | G37U G40A | < 1e-05 | < 1e-05 | < 1e-05 | < 1e-05 | < 1e-05
13 | G37A U57C G59C | < 1e-05 |  |  |  | < 1e-05
14 | G37A A53G | 0.000101 ± 2.3e-05 | 0.000212 ± 3.8e-05 | 0.000708 ± 0.00015 | 0.00163 ± 0.00063 | 0.00615 ± 0.0014
15 | G38U U46G | < 1e-05 | < 1e-05 |  | < 1e-05 | 
16 | A36U G38C A53C | < 1e-05 |  |  |  | 
17 | G35C G43A | < 1e-05 | < 1e-05 |  | < 1e-05 | 
18 | G35U U54C U56G A64U C70U | < 1e-05 |  |  |  | < 1e-05
19 | G37C A42C | < 1e-05 | < 1e-05 |  | < 1e-05 | 
20 | G35A U69A | < 1e-05 | < 1e-05 | < 1e-05 | < 1e-05 | 
21 | G37U G40A G41U A52G | < 1e-05 |  |  |  | 
22 | A36C A64C | < 1e-05 |  | < 1e-05 | < 1e-05 | < 1e-05
23 | G35A C50G U55A C61G | 0.000205 ± 5.1e-05 |  |  |  | 0.000255 ± 4e-05
24 | A36U U45A C71G | < 1e-05 |  |  |  | 

Row | Variant | self-cleavage kobs at 40 uM GlcN6P [1] [s⁻¹] | self-cleavage kobs at 160 uM GlcN6P [2] [s⁻¹] | self-cleavage kobs at 640 uM GlcN6P [3] [s⁻¹] | self-cleavage kobs at 2500 uM GlcN6P [4] [s⁻¹] | self-cleavage kobs at 10000 uM GlcN6P [5] [s⁻¹]
25 | A36U C67U C70G | 7.02e-05 ± 2.8e-05 |  |  |  | 3.53e-05 ± 1.7e-05
26 | G38A C67U C71A | < 1e-05 |  |  |  | < 1e-05
27 | G37C U65G U69G | < 1e-05 |  |  |  | < 1e-05
28 | G37U G43C G66U | < 1e-05 |  |  |  | < 1e-05
29 | G35C A39G U49G C50U | < 1e-05 |  | < 1e-05 | < 1e-05 | < 1e-05
30 | G38C G63U | < 1e-05 |  |  |  | 
31 | G35C U54A | < 1e-05 |  | < 1e-05 | < 1e-05 | < 1e-05
32 | G35A G66U | < 1e-05 | < 1e-05 |  |  | 
33 | G35U G37C G40U U56A U65A | < 1e-05 |  |  |  | 
34 | G38C U56A | < 1e-05 |  |  | < 1e-05 | 
35 | G38C A42G | < 1e-05 | < 1e-05 | < 1e-05 | < 1e-05 | < 1e-05
36 | G38A U47C | < 1e-05 | < 1e-05 |  | < 1e-05 | 
37 | A36C C50A G62C | < 1e-05 |  |  |  | 
38 | A36C U49G A53G | 4.33e-05 ± 1.4e-05 |  |  |  | 0.00107 ± 0.00018
39 | G38A G43U C67U | < 1e-05 |  |  |  | < 1e-05
40 | G37A U57G | < 1e-05 |  |  |  | 
41 | G35U A42G | < 1e-05 | < 1e-05 | < 1e-05 | < 1e-05 | < 1e-05
42 | G37U U69A | < 1e-05 |  |  |  | < 1e-05
43 | G38U G44A | < 1e-05 | < 1e-05 | < 1e-05 | < 1e-05 | < 1e-05
44 | G37U G41A | < 1e-05 | < 1e-05 | < 1e-05 |  | < 1e-05
45 | G38C U57C | < 1e-05 | < 1e-05 |  |  | < 1e-05
46 | G38U G63U | < 1e-05 |  |  | < 1e-05 | < 1e-05
47 | G37U G60A | < 1e-05 |  | < 1e-05 |  | 
48 | A36G G37C | < 1e-05 | < 1e-05 |  |  | < 1e-05
